Test results published in publication PMC10881165.

Molecular target: α-synuclein 1-140 (UniProt P37840)
Experiment: membrane pelleting, Western blot of dimers/trimers
Details: reference: WT (unphosphorylated) α-synuclein; sites S129

α-synuclein 1-140 (from UniProt P37840) pS129 α-synuclein
other: oligomer/monomer ratio: stronger; reference 0.22 ± 0.07
